Sequences and labels used below:
B1: AF4403 (other)
heavy 1: QVQLVESGGGVVQPGRSLRLDCKASGITFSNSGMHWVRQAPGKGLEWVAVIWYDGSKRYYADSVKGRFTISRDNSKNTLFLQMNSLRAEDTAVYYCATNDDYWGQGTLVTVSSAKTTAPSVYPLAPVCGDTTGSSVTLGCLVKGYFPEPVTLTWNSGSLSSGVHTFPAVLQSDLYTLSSSVTVTSSTWPSQSITCNVAHPASSTKVDKKIEPRGPTIKPCPPCKCPAPNAAGGPSVFIFPPKIKDVLMISLSPIVTCVVVDVSEDDPDVQISWFVNNVEVHTAQTQTHREDYNSTLRVVSALPIQHQDWMSGKEFKCKVNNKDLGAPIERTISKPKGSVRAPQVYVLPPPEEEMTKKQVTLTCMVTDFMPEDIYVEWTNNGKTELNYKNTEPVLDSDGSYFMYSDLRVEKKNWVERNSYSCSVVHEGLHNHHTTESFSRTPGGGGGSGGGGSGGGGSAPTSSSTKKTQLQLEHLLLDLQMILNGINNYKNPKLTDMLTFEFYMPKKATELKHLQCLERELKPLEEVLNLAQSKNFHLRPRDLISNINVIVLELKGSETTFMCEYADETATIVEFLNRWITFCQSIISTLT
heavy 2: QVQLVESGGGVVQPGRSLRLDCKASGITFSNSGMHWVRQAPGKGLEWVAVIWYDGSKRYYADSVKGRFTISRDNSKNTLFLQMNSLRAEDTAVYYCATNDDYWGQGTLVTVSSAKTTAPSVYPLAPVCGDTTGSSVTLGCLVKGYFPEPVTLTWNSGSLSSGVHTFPAVLQSDLYTLSSSVTVTSSTWPSQSITCNVAHPASSTKVDKKIEPRGPTIKPCPPCKCPAPNAAGGPSVFIFPPKIKDVLMISLSPIVTCVVVDVSEDDPDVQISWFVNNVEVHTAQTQTHREDYNSTLRVVSALPIQHQDWMSGKEFKCKVNNKDLGAPIERTISKPKGSVRAPQVYVLPPPEKEMTKKQVSLTCLVKDFMPEDIYVEWTNNGKTELNYKNTEPVLKSDGSYFMYSKLTVEKKNWVERNSYSCSVVHEGLHNHHTTKSFSRTPGGGGGSGGGGSGGGGSGGGGSQVQLVQSGAEVKKPGASVKVSCKASGDTFTRYYVHWVRQAPGQGLEWMGIINPSGGYASYAQKFQGRVTMTRDTSTSTVYMELSSLRSEDTAVYYCAAGLFIWGQGTLVTVSSASGGGGSGGGGSGGGGSHASDIQMTQSPSSLSASVGDRVTITCRASQSIGRYLAWYQQKPGKAPKLLIYSASNLETGVPSRFSGSGSGTDFTLTISSLQPEDFATYYCQQYNSFPVTFGPGTKVDIKGGGSGGGSHHHHHH
light: EIVLTQSPATLSLSPGERATLSCRASQSVSSYLAWYQQKPGQAPRLLIYDASNRATGIPARFSGSGSGTDFTLTISSLEPEDFAVYYCQQSSNWPRTFGQGTKVEIKRADAAPTVSIFPPSSEQLTSGGASVVCFLNNFYPKDINVKWKIDGSERQNGVLNSWTDQDSKDSTYSMSSTLTLTKDEYERHNSYTCEATHKTSTSPIVKSFNRNEC
B2: AF4404 (other)
heavy 1: B1 heavy 1
heavy 2: QVQLVESGGGVVQPGRSLRLDCKASGITFSNSGMHWVRQAPGKGLEWVAVIWYDGSKRYYADSVKGRFTISRDNSKNTLFLQMNSLRAEDTAVYYCATNDDYWGQGTLVTVSSAKTTAPSVYPLAPVCGDTTGSSVTLGCLVKGYFPEPVTLTWNSGSLSSGVHTFPAVLQSDLYTLSSSVTVTSSTWPSQSITCNVAHPASSTKVDKKIEPRGPTIKPCPPCKCPAPNAAGGPSVFIFPPKIKDVLMISLSPIVTCVVVDVSEDDPDVQISWFVNNVEVHTAQTQTHREDYNSTLRVVSALPIQHQDWMSGKEFKCKVNNKDLGAPIERTISKPKGSVRAPQVYVLPPPEKEMTKKQVSLTCLVKDFMPEDIYVEWTNNGKTELNYKNTEPVLKSDGSYFMYSKLTVEKKNWVERNSYSCSVVHEGLHNHHTTKSFSRTPGGGGGSGGGGSGGGGSGGGGSQVQLVQSGAEVKKPGASVKVSCKASGYTFTDYYMHWVRQAPGQGLEWMGIINPRAGYTSYALKFQGRVTMTRDTSTSTVYMELSSLRSEDTAVYYCTSGWDVWGQGTLVTVSSASGGGGSGGGGSGGGGSHASDIQMTQSPSSLSASVGDRVTITCRASQSISTWLAWYQQKPGKAPKLLIYAASSLDSGVPSRFSGSGSGTDFTLTISSLQPEDFATYYCQQSYSFPVTFGQGTKVEIKGGGSGGGSHHHHHH
light: B1 light
B3: AF4379 (other)
heavy: APTSSSTKKTQLQLEHLLLDLQMILNGINNYKNPKLTDMLTFEFYMPKKATELKHLQCLERELKPLEEVLNLAQSKNFHLRPRDLISNINVIVLELKGSETTFMCEYADETATIVEFLNRWITFCQSIISTLTGGGGSGGGGSGGGGSGGGGSQVQLVQSGAEVKKPGASVKVSCKASGDTFTRYYVHWVRQAPGQGLEWMGIINPSGGYASYAQKFQGRVTMTRDTSTSTVYMELSSLRSEDTAVYYCAAGLFIWGQGTLVTVSSAKTTAPSVYPLAPVCGDTTGSSVTLGCLVKGYFPEPVTLTWNSGSLSSGVHTFPAVLQSDLYTLSSSVTVTSSTWPSQSITCNVAHPASSTKVDKKIEPRGPTIKPCPPCKCPAPNAAGGPSVFIFPPKIKDVLMISLSPIVTCVVVDVSEDDPDVQISWFVNNVEVHTAQTQTHREDYNSTLRVVSALPIQHQDWMSGKEFKCKVNNKDLGAPIERTISKPKGSVRAPQVYVLPPPEEEMTKKQVTLTCMVTDFMPEDIYVEWTNNGKTELNYKNTEPVLDSDGSYFMYSKLRVEKKNWVERNSYSCSVVHEGLHNHHTTKSFSRTPGK
light: DIQMTQSPSSLSASVGDRVTITCRASQSIGRYLAWYQQKPGKAPKLLIYSASNLETGVPSRFSGSGSGTDFTLTISSLQPEDFATYYCQQYNSFPVTFGPGTKVDIKRADAAPTVSIFPPSSEQLTSGGASVVCFLNNFYPKDINVKWKIDGSERQNGVLNSWTDQDSKDSTYSMSSTLTLTKDEYERHNSYTCEATHKTSTSPIVKSFNRNEC
B4: AF4386 (other)
heavy 1: B3 heavy with K558D, K588E
heavy 2: QVQLVQSGAEVKKPGASVKVSCKASGDTFTRYYVHWVRQAPGQGLEWMGIINPSGGYASYAQKFQGRVTMTRDTSTSTVYMELSSLRSEDTAVYYCAAGLFIWGQGTLVTVSSAKTTAPSVYPLAPVCGDTTGSSVTLGCLVKGYFPEPVTLTWNSGSLSSGVHTFPAVLQSDLYTLSSSVTVTSSTWPSQSITCNVAHPASSTKVDKKIEPRGPTIKPCPPCKCPAPNAAGGPSVFIFPPKIKDVLMISLSPIVTCVVVDVSEDDPDVQISWFVNNVEVHTAQTQTHREDYNSTLRVVSALPIQHQDWMSGKEFKCKVNNKDLGAPIERTISKPKGSVRAPQVYVLPPPEKEMTKKQVSLTCLVKDFMPEDIYVEWTNNGKTELNYKNTEPVLKSDGSYFMYSKLTVEKKNWVERNSYSCSVVHEGLHNHHTTKSFSRTPGGGGSGGGSHHHHHH
light: B3 light
B5: AF4387 (other)
heavy 1: APTSSSTKKTQLQLEHLLLDLQMILNGINNYKNPKLTDMLTFEFYMPKKATELKHLQCLERELKPLEEVLNLAQSKNFHLRPRDLISNINVIVLELKGSETTFMCEYADETATIVEFLNRWITFCQSIISTLTGGGGSGGGGSGGGGSGGGGSQVQLVQSGAEVKKPGASVKVSCKASGYTFTDYYMHWVRQAPGQGLEWMGIINPRAGYTSYALKFQGRVTMTRDTSTSTVYMELSSLRSEDTAVYYCTSGWDVWGQGTLVTVSSAKTTAPSVYPLAPVCGDTTGSSVTLGCLVKGYFPEPVTLTWNSGSLSSGVHTFPAVLQSDLYTLSSSVTVTSSTWPSQSITCNVAHPASSTKVDKKIEPRGPTIKPCPPCKCPAPNAAGGPSVFIFPPKIKDVLMISLSPIVTCVVVDVSEDDPDVQISWFVNNVEVHTAQTQTHREDYNSTLRVVSALPIQHQDWMSGKEFKCKVNNKDLGAPIERTISKPKGSVRAPQVYVLPPPEEEMTKKQVTLTCMVTDFMPEDIYVEWTNNGKTELNYKNTEPVLDSDGSYFMYSDLRVEKKNWVERNSYSCSVVHEGLHNHHTTESFSRTPGK
heavy 2: QVQLVQSGAEVKKPGASVKVSCKASGYTFTDYYMHWVRQAPGQGLEWMGIINPRAGYTSYALKFQGRVTMTRDTSTSTVYMELSSLRSEDTAVYYCTSGWDVWGQGTLVTVSSAKTTAPSVYPLAPVCGDTTGSSVTLGCLVKGYFPEPVTLTWNSGSLSSGVHTFPAVLQSDLYTLSSSVTVTSSTWPSQSITCNVAHPASSTKVDKKIEPRGPTIKPCPPCKCPAPNAAGGPSVFIFPPKIKDVLMISLSPIVTCVVVDVSEDDPDVQISWFVNNVEVHTAQTQTHREDYNSTLRVVSALPIQHQDWMSGKEFKCKVNNKDLGAPIERTISKPKGSVRAPQVYVLPPPEKEMTKKQVSLTCLVKDFMPEDIYVEWTNNGKTELNYKNTEPVLKSDGSYFMYSKLTVEKKNWVERNSYSCSVVHEGLHNHHTTKSFSRTPGGGGSGGGSHHHHHH
light: DIQMTQSPSSLSASVGDRVTITCRASQSISTWLAWYQQKPGKAPKLLIYAASSLDSGVPSRFSGSGSGTDFTLTISSLQPEDFATYYCQQSYSFPVTFGQGTKVEIKRADAAPTVSIFPPSSEQLTSGGASVVCFLNNFYPKDINVKWKIDGSERQNGVLNSWTDQDSKDSTYSMSSTLTLTKDEYERHNSYTCEATHKTSTSPIVKSFNRNEC

Substitutions are numbered along the chain they refer to.

The assay deals with PD-1-Fc (UniProt Q15116 25-167, limits assumed). Nature of the assay: cell-based or functional assay.
PD-1-Fc, sequence (Q15116 25-167 limits assumed): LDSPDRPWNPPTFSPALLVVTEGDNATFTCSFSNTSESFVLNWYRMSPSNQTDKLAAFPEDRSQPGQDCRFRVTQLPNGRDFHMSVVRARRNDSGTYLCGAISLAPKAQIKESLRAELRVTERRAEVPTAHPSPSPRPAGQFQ
Take B1: the “IL-2 activity EC50, HEK-Blue IL-2 reporter cells, PD-1 coated wells” value (“IL-2 activity EC50 … PD-1 coated wells” for short) was 0.031 nM and the “IL-2 activity EC50, HEK-Blue IL-2 reporter cells, control wells” value was found to be 0.062 nM.

Take B2: the “IL-2 activity EC50 … PD-1 coated wells” value turned out to be 0.026 nM and the “IL-2 activity EC50, HEK-Blue IL-2 reporter cells, control wells” value turned out to be 0.064 nM.

In the case of B3, the “IL-2 activity EC50, HEK-Blue IL-2 reporter cells, IgG1 coated wells (control)” value (“IL-2 activity EC50 … (control)” for short) is 0.062 nM and the “IL-2 activity EC50 … PD-1 coated wells” value was 0.031 nM.

Consider B4, for which the “IL-2 activity EC50 … (control)” value came to 1.79 nM and the “IL-2 activity EC50 … PD-1 coated wells” value was determined as 0.05 nM.

As for B5, the “IL-2 activity EC50 … (control)” value is 0.419 nM and the “IL-2 activity EC50 … PD-1 coated wells” value stood at 0.057 nM.

Values taken from patent publication US20240366776A1 (Hoffmann-La Roche, published 2024).
